Measurements as given in PMC2952866 (Nucleic Acids Research, 2010).

Assays:
Assay in all cases: SEC + co-IP
Mcm2 = target: T1, Mcm2 (Saccharomyces cerevisiae, UniProt P29469 1-868)
T1 sequence: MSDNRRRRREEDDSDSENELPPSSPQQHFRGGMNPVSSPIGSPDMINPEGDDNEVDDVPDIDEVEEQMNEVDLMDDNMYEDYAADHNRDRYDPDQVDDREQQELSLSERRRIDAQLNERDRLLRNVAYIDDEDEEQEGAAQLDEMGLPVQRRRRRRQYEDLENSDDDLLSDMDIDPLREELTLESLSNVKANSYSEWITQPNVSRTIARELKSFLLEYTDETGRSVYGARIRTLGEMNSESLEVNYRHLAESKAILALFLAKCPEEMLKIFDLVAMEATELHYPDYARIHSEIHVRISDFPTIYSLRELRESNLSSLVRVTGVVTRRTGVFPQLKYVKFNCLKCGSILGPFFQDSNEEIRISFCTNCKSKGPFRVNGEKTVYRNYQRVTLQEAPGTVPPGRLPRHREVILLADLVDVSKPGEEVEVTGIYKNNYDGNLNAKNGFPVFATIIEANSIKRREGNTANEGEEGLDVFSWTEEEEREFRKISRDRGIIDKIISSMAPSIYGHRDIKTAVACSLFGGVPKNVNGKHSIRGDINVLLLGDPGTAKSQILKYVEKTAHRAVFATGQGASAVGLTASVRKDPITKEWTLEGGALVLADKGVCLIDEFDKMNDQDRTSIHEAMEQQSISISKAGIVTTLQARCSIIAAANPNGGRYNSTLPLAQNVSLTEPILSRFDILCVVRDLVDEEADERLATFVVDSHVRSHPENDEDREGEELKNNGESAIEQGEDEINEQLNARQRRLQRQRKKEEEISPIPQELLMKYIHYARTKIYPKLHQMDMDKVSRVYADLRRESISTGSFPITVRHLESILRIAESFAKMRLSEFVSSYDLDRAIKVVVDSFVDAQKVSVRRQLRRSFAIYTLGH

Mcm3 = Mcm3 (Saccharomyces cerevisiae, UniProt P24279 1-971)
Mcm3, sequence (P24279 whole entry): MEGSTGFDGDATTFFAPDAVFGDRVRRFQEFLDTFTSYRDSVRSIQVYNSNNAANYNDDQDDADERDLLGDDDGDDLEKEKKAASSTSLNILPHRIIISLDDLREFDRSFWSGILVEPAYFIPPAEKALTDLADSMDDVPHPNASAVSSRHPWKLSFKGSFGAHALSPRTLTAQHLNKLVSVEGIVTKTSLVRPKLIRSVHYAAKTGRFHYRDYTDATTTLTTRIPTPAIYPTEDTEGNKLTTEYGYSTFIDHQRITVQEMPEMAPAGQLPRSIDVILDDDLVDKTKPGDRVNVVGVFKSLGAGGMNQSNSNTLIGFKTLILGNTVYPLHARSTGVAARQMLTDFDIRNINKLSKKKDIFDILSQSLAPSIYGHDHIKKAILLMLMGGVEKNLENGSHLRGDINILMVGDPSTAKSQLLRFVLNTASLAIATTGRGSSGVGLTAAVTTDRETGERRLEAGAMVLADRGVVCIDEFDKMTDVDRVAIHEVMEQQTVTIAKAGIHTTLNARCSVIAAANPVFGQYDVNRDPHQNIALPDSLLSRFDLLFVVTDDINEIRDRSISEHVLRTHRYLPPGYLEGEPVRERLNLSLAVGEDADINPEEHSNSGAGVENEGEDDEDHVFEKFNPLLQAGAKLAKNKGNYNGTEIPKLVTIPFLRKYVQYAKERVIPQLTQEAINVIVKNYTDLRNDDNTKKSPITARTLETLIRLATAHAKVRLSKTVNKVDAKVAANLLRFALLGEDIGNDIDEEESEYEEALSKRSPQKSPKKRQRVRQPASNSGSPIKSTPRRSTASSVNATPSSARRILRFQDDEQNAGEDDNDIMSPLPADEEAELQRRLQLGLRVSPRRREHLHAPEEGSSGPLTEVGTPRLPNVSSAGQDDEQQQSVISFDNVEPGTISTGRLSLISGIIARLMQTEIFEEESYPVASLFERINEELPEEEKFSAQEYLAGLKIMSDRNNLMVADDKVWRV

Mcm4 = target: T2, Mcm4 (Saccharomyces cerevisiae, UniProt P30665 1-933)
T2 sequence: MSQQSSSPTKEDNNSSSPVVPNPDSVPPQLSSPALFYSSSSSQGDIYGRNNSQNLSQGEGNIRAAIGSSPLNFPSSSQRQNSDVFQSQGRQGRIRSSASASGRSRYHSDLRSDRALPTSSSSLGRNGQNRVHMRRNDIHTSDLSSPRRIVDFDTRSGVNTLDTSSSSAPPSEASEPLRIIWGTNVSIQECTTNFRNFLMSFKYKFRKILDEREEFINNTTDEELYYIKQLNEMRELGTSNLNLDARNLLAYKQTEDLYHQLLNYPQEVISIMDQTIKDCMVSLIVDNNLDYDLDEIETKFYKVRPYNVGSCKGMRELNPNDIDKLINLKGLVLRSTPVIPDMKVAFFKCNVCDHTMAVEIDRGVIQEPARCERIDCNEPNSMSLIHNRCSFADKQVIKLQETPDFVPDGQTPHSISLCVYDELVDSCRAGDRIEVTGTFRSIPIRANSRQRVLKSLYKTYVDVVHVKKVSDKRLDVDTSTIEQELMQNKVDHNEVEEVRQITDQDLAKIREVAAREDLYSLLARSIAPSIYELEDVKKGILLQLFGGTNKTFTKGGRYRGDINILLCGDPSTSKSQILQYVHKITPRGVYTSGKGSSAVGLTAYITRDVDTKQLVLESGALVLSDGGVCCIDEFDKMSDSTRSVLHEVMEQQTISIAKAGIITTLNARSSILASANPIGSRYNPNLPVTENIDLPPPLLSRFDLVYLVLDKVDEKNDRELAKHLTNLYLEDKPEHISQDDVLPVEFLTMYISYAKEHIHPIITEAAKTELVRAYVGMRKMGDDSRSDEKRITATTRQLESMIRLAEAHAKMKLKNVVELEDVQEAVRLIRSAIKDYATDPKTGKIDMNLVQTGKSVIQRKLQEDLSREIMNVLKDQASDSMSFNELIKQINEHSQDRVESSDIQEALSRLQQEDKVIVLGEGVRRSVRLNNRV

Mcm6 = Mcm6 (Saccharomyces cerevisiae, UniProt P53091 1-1017)
Mcm6, sequence (P53091 whole entry): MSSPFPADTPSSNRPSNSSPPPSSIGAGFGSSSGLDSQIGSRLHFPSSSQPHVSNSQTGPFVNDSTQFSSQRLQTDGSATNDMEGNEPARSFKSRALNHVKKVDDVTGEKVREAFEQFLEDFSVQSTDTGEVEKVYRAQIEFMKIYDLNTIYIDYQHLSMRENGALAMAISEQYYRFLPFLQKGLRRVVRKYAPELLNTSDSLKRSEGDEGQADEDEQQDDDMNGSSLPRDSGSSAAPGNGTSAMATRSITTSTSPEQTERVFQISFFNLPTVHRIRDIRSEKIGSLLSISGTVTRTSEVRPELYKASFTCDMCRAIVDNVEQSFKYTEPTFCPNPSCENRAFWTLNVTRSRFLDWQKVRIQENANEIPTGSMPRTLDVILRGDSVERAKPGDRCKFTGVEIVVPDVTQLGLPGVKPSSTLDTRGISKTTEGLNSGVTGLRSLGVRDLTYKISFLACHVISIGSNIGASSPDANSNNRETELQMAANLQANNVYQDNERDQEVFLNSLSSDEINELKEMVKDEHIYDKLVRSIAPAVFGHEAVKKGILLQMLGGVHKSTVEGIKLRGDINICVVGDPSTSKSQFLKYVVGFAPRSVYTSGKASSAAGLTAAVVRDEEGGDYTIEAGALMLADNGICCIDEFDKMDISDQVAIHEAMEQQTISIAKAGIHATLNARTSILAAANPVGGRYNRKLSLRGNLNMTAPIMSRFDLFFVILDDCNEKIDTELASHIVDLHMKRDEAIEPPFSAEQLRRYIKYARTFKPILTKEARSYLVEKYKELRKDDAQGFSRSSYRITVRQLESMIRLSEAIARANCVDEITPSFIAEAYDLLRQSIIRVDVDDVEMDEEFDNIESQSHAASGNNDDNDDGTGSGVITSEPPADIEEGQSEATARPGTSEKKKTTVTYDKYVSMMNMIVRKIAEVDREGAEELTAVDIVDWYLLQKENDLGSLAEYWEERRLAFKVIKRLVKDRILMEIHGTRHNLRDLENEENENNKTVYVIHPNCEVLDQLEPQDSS

Measured: binding result

B1: Mcm7 (natural protein)
chain: MSAALPSIQLPVDYNNLFNEITDFLVTFKQDTLSSDATRNENEDENLDAENIEQHLLEKGPKYMAMLQKVANRELNSVIIDLDDILQYQNEKFLQGTQADDLVSAIQQNANHFTELFCRAIDNNMPLPTKEIDYKDDVLDVILNQRRLRNERMLSDRTNEIRSENLMDTTMDPPSSMNDALREVVEDETELFPPNLTRRYFLYFKPLSQNCARRYRKKAISSKPLSVRQIKGDFLGQLITVRGIITRVSDVKPAVEVIAYTCDQCGYEVFQEVNSRTFTPLSECTSEECSQNQTKGQLFMSTRASKFSAFQECKIQELSQQVPVGHIPRSLNIHVNGTLVRSLSPGDIVDVTGIFLPAPYTGFKALKAGLLTETYLEAQFVRQHKKKFASFSLTSDVEERVMELITSGDVYNRLAKSIAPEIYGNLDVKKALLLLLVGGVDKRVGDGMKIRGDINVCLMGDPGVAKSQLLKAICKISPRGVYTTGKGSSGVGLTAAVMKDPVTDEMILEGGALVLADNGICCIDEFDKMDESDRTAIHEVMEQQTISISKAGINTTLNARTSILAAANPLYGRYNPRLSPLDNINLPAALLSRFDILFLMLDIPSRDDDEKLAEHVTYVHMHNKQPDLDFTPVEPSKMREYIAYAKTKRPVMSEAVNDYVVQAYIRLRQDSKREMDSKFSFGQATPRTLLGIIRLSQALAKLRLADMVDIDDVEEALRLVRVSKESLYQETNKSKEDESPTTKIFTIIKKMLQETGKNTLSYENIVKTVRLRGFTMLQLSNCIQEYSYLNVWHLINEGNTLKFVDDGTMDTDQEDSLVSTPKLAPQTTASANVSAQDSDIDLQDA
binds: Mcm2 | Mcm3 | Mcm4 | Mcm6
